Biological target: T1, apelin receptor (Rattus norvegicus), Q9JHG3
T1 chain: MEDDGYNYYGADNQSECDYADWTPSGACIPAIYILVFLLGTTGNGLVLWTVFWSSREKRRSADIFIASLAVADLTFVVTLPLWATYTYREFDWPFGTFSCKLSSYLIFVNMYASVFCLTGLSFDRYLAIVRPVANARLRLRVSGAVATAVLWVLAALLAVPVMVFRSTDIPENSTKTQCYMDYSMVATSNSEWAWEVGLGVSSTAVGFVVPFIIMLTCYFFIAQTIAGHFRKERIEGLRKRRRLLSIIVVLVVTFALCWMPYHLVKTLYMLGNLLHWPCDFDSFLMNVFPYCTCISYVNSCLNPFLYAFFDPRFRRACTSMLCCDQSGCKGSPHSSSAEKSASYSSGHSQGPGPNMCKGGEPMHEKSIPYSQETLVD
Assay: radioligand competition binding, heart homogenate
Settings: modification not given

Binder: LVQPRGSRNGPGPWQGGRRKFRRQRPRCSHKGPMPF [apelin-36-[L28C(30kDa-PEG)]]
- Ki: 8.71 nM

— publication PMC6838674, “Apelin-36-[L28A] and Apelin-36-[L28C(30kDa-PEG)] peptides that improve diet induced obesity are G protein biased ligands at the apelin receptor” (Peptides, 2019)
